The source of these data is US20070020269A1 (published 2007).

For one experiment, the target named is T1, p21-D3 (UniProt P38936 60-164).
T1 construct: not shown: myc-tag from pcDNA3 vector
In words: co-immunoprecipitation (anti-myc IP, anti-flag blot), co-transfected 293T cells. From the text:
(§1) In order to determine the interacting regions of RX50 and p21, the 293T cells were co-transfected with RX50 and p21, RX50 and p21-D1, RX50 and p21-D2, RX50 and p21-D3, RX50 and p21-C, RX50 and p21-N, respectively. The transfected cells were allowed to grow 24 hrs before lysis. The supernatant was collected by centrifugation. The […] were subjected to immunoprecipitation with anti-myc antibody and Protein G. The product of co-immunoprecipitation was electrophoresised on SDS-PAGE, transferred onto a nitro cellulose membrane, and then subjected to immunoblot with a enzyme-labeled anti-flag antibody. […] It was inferred that the region of p21 interacting with RX50 was located between amino acid residue 40 to 60 of p21.

In another experiment the target is T2, p21-C (UniProt P38936 91-164).
T2 construct: not shown: myc-tag from pcDNA3 vector
T2 sequence (P38936 91-164): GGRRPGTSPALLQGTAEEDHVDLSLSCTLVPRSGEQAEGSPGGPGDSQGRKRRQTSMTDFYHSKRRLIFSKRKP
The description is as above.
Source text: as §1

T1 sequence (P38936 60-164): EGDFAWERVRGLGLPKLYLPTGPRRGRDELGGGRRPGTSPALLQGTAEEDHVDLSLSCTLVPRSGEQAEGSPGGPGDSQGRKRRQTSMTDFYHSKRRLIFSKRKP

B1: Flag-RX50 (enzyme)
chain: MHGYFGCNAAAEPGYSAFVGTPQICVTKFSTRNCQGMDSVIKPLDTIPEDKKVRVQRTQSTFDPFEKPANQVKRVHSENNACINFKTSSTGKESPKVRRHSSPSSPTSPKFGKADSYEKLEKLGEGSYAYVYKGKSKVNGKLVALKVIRLQEEEGTPFTAIREASIIKGLKHANIVLLHDIIHTKETLTLVFEYYHTDLCQYMDKHPGGLHPDNVKLFLFQLLRGLSYIHQRYILHRDLKPGNLLISDTGELKLADFGLAKAKSVPSHTTSNEVVYLWYRPPDVLLGSTEYSTCLDMWGVGCIFVEMIQGVAAFPGMKDIQDQLERIFLVLGTPNEDTWPGVHSLPHFKPERFTLYSSKNLRQAWNKLSYVNHAEDLASKLLQCSPKNRLSAQAALSHEYFSDLPPRLWELTDMSSIFTVPNVRLQPEAGESMRAFGKNNSYGKSLSNSKH
notes: Expressed in transfected 293T cells; also called RX50 protein; not shown: N-terminal flag-tag from modified pcDNA3.1
For B1, the binding result with p21-D3 and with p21-C was “no binding” in each case.
